Results on one variant are retold here after IntAct's records for PubMed 19162005.

Sequences and labels used below:
B1: Regulator of cell cycle RGCC (Homo sapiens), Q9H4X1-2 (parent)
chain: MKPPAEDLSDALCEFDAVLADFASPFHERHFHYEEHLERMKRRSSASVSDSSGFSDSESADSLYRNSFSFSDEKLNSPTDSTPALLSATVTPQKAKLGDTKELEAFIADLDKTLASM

Variants of B1 are the subject of the experiment. The conditions noted are these: with akt1_human AKT1, P31749.
Sequence of akt1_human AKT1, P31749 (P31749 whole entry): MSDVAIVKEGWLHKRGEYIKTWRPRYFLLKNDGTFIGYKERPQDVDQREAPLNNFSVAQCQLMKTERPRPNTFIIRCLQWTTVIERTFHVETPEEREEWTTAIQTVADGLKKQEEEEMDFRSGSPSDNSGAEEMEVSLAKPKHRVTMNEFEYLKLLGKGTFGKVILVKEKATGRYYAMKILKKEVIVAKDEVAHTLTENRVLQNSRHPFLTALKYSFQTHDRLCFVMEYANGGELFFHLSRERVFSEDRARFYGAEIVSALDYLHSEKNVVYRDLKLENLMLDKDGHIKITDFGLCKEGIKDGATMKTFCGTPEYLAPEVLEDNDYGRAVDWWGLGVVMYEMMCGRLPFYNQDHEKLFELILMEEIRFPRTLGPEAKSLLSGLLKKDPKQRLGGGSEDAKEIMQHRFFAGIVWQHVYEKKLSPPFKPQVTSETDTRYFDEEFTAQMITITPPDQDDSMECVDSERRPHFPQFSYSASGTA
As for S45A;S47A, the “effect of a mutation on the interaction” value is on record as “disrupting interaction”.
